# Experiments:
# HLA-A*03:01 = experiment: IEDB peptide-MHC binding, purified MHC/competitive/fluorescence; filed as Kd, often an IC50 or EC50 that approximates it; ≥ and ≤ were set here for values at or beyond the usual limits of such assays
# HLA-B*35:01 = experiment: as above
# HLA-A*02:03 [1] = experiment: as above
# HLA-A*02:12 = experiment: as above
# HLA-A*02:16 = experiment: as above
# HLA-A*02:19 = experiment: as above
# HLA-A*24:03 = experiment: as above
# HLA-A*26:01 = experiment: as above
# HLA-A*29:02 = experiment: as above
# HLA-A*68:02 = experiment: as above
# HLA-A*69:01 = experiment: as above
# HLA-B*27:03 = experiment: as above
# HLA-B*39:01 = experiment: as above
# HLA-A*02:01 [2] = experiment: IEDB peptide-MHC binding, purified MHC/competitive/radioactivity; filed as Kd, often an IC50 or EC50 that approximates it; ≥ and ≤ were set here for values at or beyond the usual limits of such assays
# HLA-A*02:03 [3] = experiment: as above
# HLA-A*02:17 = experiment: as above
# HLA-A*02:06 [4] = experiment: IEDB peptide-MHC binding, purified MHC/competitive/fluorescence; filed as Kd, often an IC50 or EC50 that approximates it; ≥ and ≤ were set here for values at or beyond the usual limits of such assays
# HLA-A*02:11 = experiment: as above
# HLA-A*02:06 [5] = experiment: IEDB peptide-MHC binding, purified MHC/competitive/radioactivity; filed as Kd, often an IC50 or EC50 that approximates it; ≥ and ≤ were set here for values at or beyond the usual limits of such assays
# HLA-A*32:07 = experiment: IEDB peptide-MHC binding, purified MHC/competitive/fluorescence; filed as Kd, often an IC50 or EC50 that approximates it; ≥ and ≤ were set here for values at or beyond the usual limits of such assays; conditions: source organism: West Nile virus
# HLA-A*32:15 = experiment: as above; conditions: source organism: West Nile virus
# HLA-A*68:23 = experiment: as above; conditions: source organism: West Nile virus
# HLA-B*15:42 = experiment: as above; conditions: source organism: West Nile virus
# HLA-B*45:06 = experiment: as above; conditions: source organism: West Nile virus
# HLA-B*83:01 = experiment: as above; conditions: source organism: West Nile virus
# HLA-A*02:01 [6] = experiment: as above
# HLA-B*07:02 = experiment: IEDB peptide-MHC binding, purified MHC/direct/fluorescence; filed as Kd, often an IC50 or EC50 that approximates it; ≥ and ≤ were set here for values at or beyond the usual limits of such assays; conditions: source organism: Mammarenavirus juninense
# HLA-B*51:01 = experiment: IEDB peptide-MHC binding, purified MHC/competitive/fluorescence; filed as Kd, often an IC50 or EC50 that approximates it; ≥ and ≤ were set here for values at or beyond the usual limits of such assays
# HLA-B*53:01 = experiment: IEDB peptide-MHC binding, purified MHC/competitive/radioactivity; filed as Kd, often an IC50 or EC50 that approximates it; ≥ and ≤ were set here for values at or beyond the usual limits of such assays; conditions: source organism: Mammarenavirus juninense
# HLA-B*54:01 = experiment: as above; conditions: source organism: Mammarenavirus juninense
# HLA-C*15:02 = experiment: IEDB peptide-MHC binding, purified MHC/direct/fluorescence; filed as Kd, often an IC50 or EC50 that approximates it; ≥ and ≤ were set here for values at or beyond the usual limits of such assays
# HLA-B*15:01 = experiment: IEDB peptide-MHC binding, purified MHC/competitive/fluorescence; filed as Kd, often an IC50 or EC50 that approximates it; ≥ and ≤ were set here for values at or beyond the usual limits of such assays
# HLA-B*15:17 = experiment: as above; conditions: source organism: Cryptosporidium parvum Iowa II
# HLA-B*18:01 = experiment: as above
# HLA-B*46:01 = experiment: as above
# HLA-B*57:01 = experiment: as above
# HLA-C*12:03 = experiment: IEDB peptide-MHC binding, purified MHC/direct/fluorescence; filed as Kd, often an IC50 or EC50 that approximates it; ≥ and ≤ were set here for values at or beyond the usual limits of such assays; conditions: source organism: Bacillus anthracis str. A0488
# HLA-A*31:01 = experiment: IEDB peptide-MHC binding, purified MHC/competitive/fluorescence; filed as Kd, often an IC50 or EC50 that approximates it; ≥ and ≤ were set here for values at or beyond the usual limits of such assays; conditions: source organism: Escherichia coli 536
# HLA-B*08:01 = experiment: IEDB peptide-MHC binding, purified MHC/competitive/radioactivity; filed as Kd, often an IC50 or EC50 that approximates it; ≥ and ≤ were set here for values at or beyond the usual limits of such assays; conditions: source organism: Dengue virus 1 Brazil/97-11/1997
# [7] = source organism: Salmonella enterica subsp. enterica serovar Typhi
# [8] = source organism: Entamoeba histolytica HM-1:IMSS
# [9] = source organism: Dengue virus 4 Philippines/H241/1956
# [10] = source organism: Human herpesvirus 5 strain Towne
# [11] = source organism: Dengue virus 2 Jamaica/1409/1983
# [12] = source organism: Human immunodeficiency virus 1
# [13] = source organism: Mammarenavirus juninense
# [14] = source organism: Cryptosporidium parvum Iowa II
# [15] = source organism: Dengue virus 3 China/80-2/1980
# [16] = source organism: Bacillus anthracis str. A0488
# [17] = source organism: Escherichia coli 536
# [18] = source organism: Dengue virus 1 Singapore/S275/1990
# [19] = source organism: Dengue virus 1 Brazil/97-11/1997
sequence,measurement,setting,value
HVCYFSHPY,Kd,HLA-A*03:01; [7],≥ 20000 nM
same,Kd,HLA-B*35:01; [7],0.7 nM
KTFEWGVFY,Kd,HLA-A*02:03 [1]; [8],≥ 20000 nM
same,Kd,HLA-A*02:12; [8],≥ 20000 nM
same,Kd,HLA-A*02:16; [8],≥ 20000 nM
same,Kd,HLA-A*02:19; [8],≥ 20000 nM
same,Kd,HLA-A*24:03; [8],≥ 20000 nM
same,Kd,HLA-A*26:01; [8],≥ 20000 nM
same,Kd,HLA-A*29:02; [8],0.5 nM
same,Kd,HLA-A*68:02; [8],≥ 20000 nM
same,Kd,HLA-A*69:01; [8],≥ 20000 nM
same,Kd,HLA-B*27:03; [8],≥ 20000 nM
same,Kd,HLA-B*39:01; [8],≥ 20000 nM
KLSMGLIAI,Kd,HLA-A*02:01 [2]; [9],12.4 nM
same,Kd,HLA-A*02:03 [3]; [9],31.4 nM
same,Kd,HLA-A*02:17; [9],2480 nM
NLVPMVATV,Kd,HLA-A*02:06 [4]; [10],≤ 0.1 nM
same,Kd,HLA-A*02:11; [10],≤ 0.1 nM
same,Kd,HLA-A*02:12; [10],1.55 nM
same,Kd,HLA-A*02:16; [10],0.543 nM
same,Kd,HLA-A*02:19; [10],0.6 nM
same,Kd,HLA-A*69:01; [10],75 nM
YMPTVIEEL,Kd,HLA-A*02:01 [2]; [9],39.6 nM
same,Kd,HLA-A*02:03 [3]; [9],91.9 nM
same,Kd,HLA-A*02:06 [5]; [9],46.9 nM
same,Kd,HLA-A*02:17; [9],5.23 nM
TLLLLTLLAT,Kd,HLA-A*02:01 [2]; [11],141 nM
same,Kd,HLA-A*02:17; [11],1320 nM
ETTNWLWTF,Kd,HLA-A*32:07,1.7 nM
same,Kd,HLA-A*32:15,18.5 nM
same,Kd,HLA-A*68:23,2.2 nM
same,Kd,HLA-B*15:42,≥ 5000 nM
same,Kd,HLA-B*45:06,≥ 5000 nM
same,Kd,HLA-B*83:01,≥ 5000 nM
DLADQLIHL,Kd,HLA-A*02:01 [6]; [12],178 nM
same,Kd,HLA-A*02:03 [1]; [12],136 nM
same,Kd,HLA-A*02:06 [4]; [12],59 nM
same,Kd,HLA-A*02:11; [12],33 nM
same,Kd,HLA-A*02:12; [12],476 nM
same,Kd,HLA-A*02:16; [12],55.5 nM
same,Kd,HLA-A*02:19; [12],42.5 nM
same,Kd,HLA-A*69:01; [12],19.8 nM
LPTTITVPV,Kd,HLA-B*07:02,824 nM
same,Kd,HLA-B*35:01; [13],≤ 0.1 nM
same,Kd,HLA-B*51:01; [13],700 nM
same,Kd,HLA-B*53:01,127 nM
same,Kd,HLA-B*54:01,9 nM
VTNRHEEKF,Kd,HLA-C*15:02; source organism: human gammaherpesvirus 4,4270 nM
VYWENEVSI,Kd,HLA-A*02:01 [6]; [14],≥ 20000 nM
same,Kd,HLA-A*02:03 [1]; [14],≥ 20000 nM
same,Kd,HLA-A*02:11; [14],≥ 20000 nM
same,Kd,HLA-A*02:12; [14],286 nM
same,Kd,HLA-A*02:16; [14],≥ 20000 nM
same,Kd,HLA-A*02:19; [14],≥ 20000 nM
same,Kd,HLA-A*03:01; [14],≥ 20000 nM
same,Kd,HLA-A*26:01; [14],≥ 20000 nM
same,Kd,HLA-A*29:02; [14],≥ 20000 nM
same,Kd,HLA-A*68:02; [14],≥ 20000 nM
same,Kd,HLA-A*69:01; [14],≥ 20000 nM
same,Kd,HLA-B*15:01; [14],≥ 20000 nM
same,Kd,HLA-B*15:17,≥ 20000 nM
same,Kd,HLA-B*18:01; [14],≥ 20000 nM
same,Kd,HLA-B*27:03; [14],≥ 20000 nM
same,Kd,HLA-B*39:01; [14],≥ 20000 nM
same,Kd,HLA-B*46:01; [14],≥ 20000 nM
same,Kd,HLA-B*51:01; [14],≥ 20000 nM
same,Kd,HLA-B*57:01; [14],≥ 20000 nM
FMTATPPGA,Kd,HLA-A*02:01 [2]; [9],49 nM
same,Kd,HLA-A*02:03 [3]; [9],152 nM
same,Kd,HLA-A*02:17; [9],6440 nM
KTIPVAMTL,Kd,HLA-C*15:02; source organism: Salmonella enterica subsp. enterica serovar Typhimurium str. LT2,15 nM
LLLGLMILL,Kd,HLA-A*02:01 [2]; [15],13.6 nM
same,Kd,HLA-A*02:17; [15],110 nM
LIFILLTAV,Kd,HLA-A*02:01 [2]; [11],74.4 nM
same,Kd,HLA-A*02:03 [3]; [11],56.2 nM
same,Kd,HLA-A*02:06 [5]; [11],497 nM
same,Kd,HLA-A*02:17; [11],3590 nM
FVFGIPLLV,Kd,HLA-C*12:03,≤ 1 nM
same,Kd,HLA-C*15:02; [16],41 nM
same,Kd,HLA-A*29:02; [16],0.2 nM
RVGIYFGMK,Kd,HLA-A*02:01 [6]; [17],≥ 20000 nM
same,Kd,HLA-A*02:03 [1]; [17],≥ 20000 nM
same,Kd,HLA-A*02:11; [17],≥ 20000 nM
same,Kd,HLA-A*02:12; [17],≥ 20000 nM
same,Kd,HLA-A*02:16; [17],≥ 20000 nM
same,Kd,HLA-A*02:19; [17],≥ 20000 nM
same,Kd,HLA-A*24:03; [17],≥ 20000 nM
same,Kd,HLA-A*26:01; [17],≥ 20000 nM
same,Kd,HLA-A*31:01,45.6 nM
same,Kd,HLA-A*68:02; [17],≥ 20000 nM
same,Kd,HLA-A*69:01; [17],≥ 20000 nM
same,Kd,HLA-B*15:01; [17],≥ 20000 nM
same,Kd,HLA-B*18:01; [17],≥ 20000 nM
same,Kd,HLA-B*39:01; [17],≥ 20000 nM
same,Kd,HLA-B*46:01; [17],≥ 20000 nM
same,Kd,HLA-B*51:01; [17],≥ 20000 nM
same,Kd,HLA-B*57:01; [17],≥ 20000 nM
LLMRTTWAL,Kd,HLA-A*02:01 [2]; [18],21.4 nM
same,Kd,HLA-A*02:03 [3]; [19],0.817 nM
same,Kd,HLA-A*02:06 [5]; [19],1.43 nM
same,Kd,HLA-A*02:17; [18],4.89 nM
same,Kd,HLA-B*08:01,20.7 nM
